Assay [1] has as its target T1, hu-IL-36γ (human IL-36γ, N-terminally truncated active form S18-D169) (human, UniProt Q9NZH8 18-169).
T1 sequence: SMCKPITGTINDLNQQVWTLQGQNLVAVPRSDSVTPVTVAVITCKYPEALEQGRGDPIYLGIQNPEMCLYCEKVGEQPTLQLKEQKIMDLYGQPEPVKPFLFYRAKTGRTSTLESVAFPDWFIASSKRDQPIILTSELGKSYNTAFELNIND
In words: cell-based or functional assay.

Assay [2] deals with T2, hu-IL-36β (human IL-36β, N-terminally truncated active form R5-E157) (human).
T2 chain: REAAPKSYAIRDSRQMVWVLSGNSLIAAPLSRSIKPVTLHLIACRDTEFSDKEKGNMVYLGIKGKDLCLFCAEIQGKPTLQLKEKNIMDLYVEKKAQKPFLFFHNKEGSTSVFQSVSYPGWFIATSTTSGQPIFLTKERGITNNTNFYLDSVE
In words: cell-based or functional assay.

Assay [3] has as its target T3, hu-IL-36α (human IL-36α, N-terminally truncated active form K6-F158) (human, UniProt Q9UHA7 6-158).
T3 sequence: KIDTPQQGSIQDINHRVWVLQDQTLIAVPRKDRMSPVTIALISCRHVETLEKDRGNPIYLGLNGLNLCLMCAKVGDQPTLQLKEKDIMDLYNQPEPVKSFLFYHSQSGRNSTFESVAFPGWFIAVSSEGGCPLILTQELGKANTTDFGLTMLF
Description: cell-based or functional assay.

Assay [4] addresses T4, hu-IL-36γ-Avi (in-vivo biotinylated) (human, site-specifically biotinylated in vivo on the C-terminal AviTag (BirA)).
T4 construct: also called biotinylated human IL-36γ-Avi
T4 chain: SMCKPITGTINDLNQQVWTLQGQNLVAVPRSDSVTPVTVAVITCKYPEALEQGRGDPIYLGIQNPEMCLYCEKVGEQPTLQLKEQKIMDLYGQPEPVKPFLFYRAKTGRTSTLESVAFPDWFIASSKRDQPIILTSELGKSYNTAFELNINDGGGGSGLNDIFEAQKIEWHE
In words: SPR (Biacore 8K), in-vivo biotinylated IL-36-Avi captured on CAP chip, bispecific IgG injected, 25°C. How it is done: (§1) Surface plasmon resonance (SPR) analysis was used to determine the binding affinity for human and cynomolgus monkey IL-36 (“hu-IL-36” and “cy-IL-36,” respectively) using a BIACORE™ 8K instrument as described in Example 2. […] Briefly, a 1:4 dilution of Biotin CAPture Reagent (GE Healthcare) into HBS-EP buffer (0.01 M HEPES pH 7.4, 0.15 M NaCl, 3 mM EDTA, 0.005% Surfactant P20) was applied to a CAP sensor chip at 2 μL/min flow rate. For kinetics measurements, 1 nM biotinylated human and cyno IL-36α-Avi, IL-36γ-Avi; 0.8 nM biotinylated human and cyno IL-36β-Avi were captured at 10 μL/min to achieve 15-25 response units in the second flow cell (FC2). FC1 was kept as a reference. […] The sensorgram was recorded and subject to reference and buffer subtraction before data analysis with the BIACORE® 8K Evaluation Software (version 1.1.1.7442). […] Association rates (kₒₙ) and dissociation rates (koff) were calculated using a simple one-to-one Langmuir binding model. The equilibrium dissociation constant (KD) was calculated as the ratio of koff/kₒₙ.
(In general: In SPR one partner is held on a chip, and binding of the other changes the refractive index at the surface.)

Assay [5] deals with T5, hu-IL-36β-Avi (in-vivo biotinylated) (human, site-specifically biotinylated in vivo on the C-terminal AviTag (BirA)).
T5 construct: also called biotinylated human IL-36β-Avi
T5 chain: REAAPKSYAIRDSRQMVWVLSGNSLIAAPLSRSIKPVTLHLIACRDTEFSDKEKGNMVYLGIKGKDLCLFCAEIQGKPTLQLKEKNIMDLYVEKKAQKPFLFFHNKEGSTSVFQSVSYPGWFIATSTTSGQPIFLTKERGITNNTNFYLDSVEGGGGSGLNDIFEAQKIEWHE
Described as above. How it is done: as §1

Assay [6] addresses T6, cy-IL-36γ-Avi (in-vivo biotinylated) (cynomolgus monkey, limits assumed, site-specifically biotinylated in vivo on the C-terminal AviTag (BirA)).
T6 construct: also called biotinylated cyno IL-36γ-Avi
T6 chain: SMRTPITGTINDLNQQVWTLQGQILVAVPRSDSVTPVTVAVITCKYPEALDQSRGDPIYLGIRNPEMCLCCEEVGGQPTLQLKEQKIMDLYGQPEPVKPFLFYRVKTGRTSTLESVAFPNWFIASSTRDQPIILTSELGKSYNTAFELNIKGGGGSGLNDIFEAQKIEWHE
The description is as above. How it is done: as §1

For assay [7], the target named is T7, cy-IL-36α-Avi (in-vivo biotinylated) (cynomolgus monkey, limits assumed, site-specifically biotinylated in vivo on the C-terminal AviTag (BirA)).
T7 construct: also called biotinylated cyno IL-36α-Avi
T7 chain: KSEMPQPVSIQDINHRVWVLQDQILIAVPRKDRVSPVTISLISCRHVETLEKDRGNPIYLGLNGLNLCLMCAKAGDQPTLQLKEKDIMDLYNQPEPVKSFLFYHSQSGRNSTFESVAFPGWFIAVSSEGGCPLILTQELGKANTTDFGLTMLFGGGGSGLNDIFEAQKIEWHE
The assay is described as above. As to the method:
as §1

B1: mAb2.10/mAb6_2.7 multispecific common light chain antibody (IgG, knobs-into-holes, N297G) (bispecific antibody)
heavy 1: not shown
heavy 2: not shown
light: ESVLTQPPSVSGAPGQRVTISCTGSSSNIGAHYDVHWYQQLPGTAPKLLIYGNDNRPSGVPDRFSGSKSGTSASLAITGLQAEDEADYYCQSYDYSLSGYVFGGGTKLTVLGQPKAAPSVTLFPPSSEELQANKATLVCLISDFYPGAVTVAWKADSSPVKAGVETTTPSKQSNNKYAASSYLSLTPEQWKSHKSYSCQVTHEGSTVEKTVAPTECS
notes: tags removed; also called mAb2.10/mAb6_2.7 IgG; anti-IL-36 multispecific antibody
For the molecule B1, in assay [1], the “% inhibition of IL-8 production in HEKa cells at 8 nM antibody” value was 100%; the “% inhibition of IL-8 production in HaCat cells at 8 nM antibody” value is 100%; the “IC50, IL-36-mediated IL-8 production in HaCat cells” value (“IC50 … in HaCat cells” below) is approximately 1.1 nM; the “IC50, IL-36-mediated IL-8 production in primary human adult keratinocytes (HEKa)” value (“IC50, IL-36-mediated IL-8 production … (HEKa)” for short) was approximately 2.7 nM. Besides, in assay [2], the “% inhibition of IL-8 production in HEKa cells at 8 nM antibody” value amounted to 100%; the “% inhibition of IL-8 production in HaCat cells at 8 nM antibody” value turned out to be 100%; the “IC50 … in HaCat cells” value was approximately 0.13 nM; the “IC50, IL-36-mediated IL-8 production … (HEKa)” value is approximately 0.11 nM. Besides, in assay [3], the “% inhibition of IL-8 production in HEKa cells at 8 nM antibody” value turned out to be 100%; the “% inhibition of IL-8 production in HaCat cells at 8 nM antibody” value is 100%; the “IC50 … in HaCat cells” value is approximately 0.38 nM; the “IC50, IL-36-mediated IL-8 production … (HEKa)” value is approximately 0.56 nM. Also, in assay [4], the Kd stood at 0.72 nM, the koff stood at 0.000122 s⁻¹ and the kon is 171000 M⁻¹ s⁻¹. In assay [5], this molecule had a Kd of 0.63 nM, a koff of 4.77e-05 s⁻¹ and a kon of 76000 M⁻¹ s⁻¹. Also, in assay [6], the Kd worked out at 0.79 nM, the koff was 0.00013 s⁻¹ and the kon turned out to be 165000 M⁻¹ s⁻¹. In assay [7], this molecule returned a Kd of 1.93 nM, a koff of 0.000335 s⁻¹ and an on-rate (kon) of 174000 M⁻¹ s⁻¹.

The term Kd denotes a measure of binding affinity in units of concentration. By koff is commonly meant a measure of how fast the partners let go of each other. A word on the kon: it is the rate constant with which the complex forms.

The values above are taken from US20230235040A1 (ALMIRALL S A, published 2023).
